Experimental data from article PMC3414502 (2012).

Molecular target: PLCβ2 (Homo sapiens, UniProt Q00722)
Assay: fluorescence titration

Sequence of PLCβ2 (Q00722 whole entry): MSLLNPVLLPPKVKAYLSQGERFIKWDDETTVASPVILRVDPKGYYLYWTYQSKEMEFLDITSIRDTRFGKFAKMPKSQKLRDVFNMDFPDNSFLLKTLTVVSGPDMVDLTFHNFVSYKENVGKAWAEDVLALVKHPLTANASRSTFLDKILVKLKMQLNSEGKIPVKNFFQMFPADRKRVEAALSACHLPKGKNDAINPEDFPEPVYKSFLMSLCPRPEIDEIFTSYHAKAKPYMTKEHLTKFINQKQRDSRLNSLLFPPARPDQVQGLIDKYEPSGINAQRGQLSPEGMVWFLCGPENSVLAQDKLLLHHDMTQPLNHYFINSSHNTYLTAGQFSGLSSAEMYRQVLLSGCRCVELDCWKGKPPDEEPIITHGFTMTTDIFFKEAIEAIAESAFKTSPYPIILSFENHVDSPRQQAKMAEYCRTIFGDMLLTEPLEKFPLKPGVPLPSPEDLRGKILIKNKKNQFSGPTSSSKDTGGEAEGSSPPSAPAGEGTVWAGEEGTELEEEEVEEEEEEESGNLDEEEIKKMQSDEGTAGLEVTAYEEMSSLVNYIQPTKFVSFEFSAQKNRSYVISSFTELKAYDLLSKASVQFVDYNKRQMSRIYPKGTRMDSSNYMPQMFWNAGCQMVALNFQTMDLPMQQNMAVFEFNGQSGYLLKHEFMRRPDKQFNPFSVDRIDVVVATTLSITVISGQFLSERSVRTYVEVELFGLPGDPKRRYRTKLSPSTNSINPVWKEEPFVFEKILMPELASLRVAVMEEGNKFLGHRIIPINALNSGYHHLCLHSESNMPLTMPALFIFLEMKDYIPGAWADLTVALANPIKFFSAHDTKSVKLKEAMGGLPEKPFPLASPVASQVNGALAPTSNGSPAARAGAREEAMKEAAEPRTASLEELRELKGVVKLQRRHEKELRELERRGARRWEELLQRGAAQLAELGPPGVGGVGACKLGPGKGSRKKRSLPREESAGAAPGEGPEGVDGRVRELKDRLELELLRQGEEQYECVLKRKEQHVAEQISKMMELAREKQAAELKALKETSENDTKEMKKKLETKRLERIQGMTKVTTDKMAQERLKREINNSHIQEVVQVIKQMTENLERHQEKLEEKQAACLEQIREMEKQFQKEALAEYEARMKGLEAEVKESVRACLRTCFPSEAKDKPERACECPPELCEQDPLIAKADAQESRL

B1: Gαq (activated) (protein)
chain: MTLESIMACCLSEEAKEARRINDEIERQLRRDKRDARRELKLLLLGTGESGKSTFIKQMRIIHGSGYSDEDKRGFTKLVYQNIFTAMQAMIRAMDTLKIPYKYEHNKAHAQLVREVDVEKVSAFENPYVDAIKSLWNDPGIQECYDRRREYQLSDSTKYYLNDLDRVADPSYLPTQQDVLRVRVPTTGIIEYPFDLQSVIFRMVDVGGQRSERRKWIHCFENVTSIMFLVALSEYDQVLVESDNENRMEESKALFRTIITYPWFQNSSVILFLNKKDLLEEKIMYSHLVDYFPEYDGPQRDAQAAREFILKMFVDLNPDSDKIIYSHFTCATDTENIRFVFAAVKDTILQLNLKEYNLV
modifications: activated Gαq, with γ-synuclein
Kd: 0.9 nM
